The values that follow come from patent US20260125455A1 (CLEVELAND CLINIC FOUNDATION, published 2026).

For experiment [1], the target named is T1, human complement protein C6 (human, UniProt P13671 22-934).
T1 construct: also called human C6; C6 antigen
Kind of experiment: ELISA, C6-coated wells. The method, then:
The binding of the purified chimeric molecules, MoC601 HuG4K and MoC601 HuG1KFab, was also confirmed by ELISA, where the anti-human IgG (Fab-specific) secondary reagent was used. The control mouse antibody bound as previously (EC₅₀ 0.11 nM). The EC₅₀ for purified MoC601 HuG4K (0.27 nM) was similar to that obtained for the MoC601 HuG4K supernatant sample above. […] The EC₅₀ value for the Fab molecule (0.48 nM) was higher than for the antibody, which would be expected since the Fab is unable to bind bivalently to the antigen on the well. A C6-binding assay was also set up on the Octet RED384 instrument. […] However, MoC601 MoG1K could be stably loaded onto anti-mouse Fc (AMC) biosensors. Concentrations of the mouse and chimeric antibodies were adjusted to give similar levels of loading on to the AMC and […]

Experiment [2] concerns the target T1, human complement protein C6. Kind of experiment: ELISA, C6-coated wells, same experiment as the chimeric supernatants. On the procedure: The chimeric molecules, MoC601 HuG4K and MoC601 HuG1KFab, were tested for C6 binding in the form of expression supernatants. In this experiment, the human molecules were detected with an HRP-conjugated goat anti-human kappa chain reagent, which gave relative low signals. However, the binding of both chimeric molecules to C6 was confirmed. The EC₅₀ value for MoC601 HuG4K (0.43 nM) was higher than that of the mouse antibody (0.07 nM), though this was lower than in previous experiments. A further experiment was performed to find a more suitable anti-human antibody detection reagent. MoC601 HuG4K from expression supernatant was detected with three different secondary antibodies. Both anti-human IgG Fc-specific and Fab-specific detection gave higher signals than the anti-kappa chain reagent but the Fc-specific detection yielded a very low EC₅₀ (0.03 nM).
In general terms: In an ELISA, binding on a coated surface is turned into a signal by an enzyme label.

For experiment [3] the target is unchanged. Briefly: ELISA, C6 coated at 0.5 and 1.0 µg/ml, anti-mouse IgG (Fc-specific) HRP. On the procedure: Prior to the generation of the chimeric molecules, the binding ELISA was optimised using purified mouse 1C9 antibody. The ELISA method published in Lin et al., 2020, uses human C6 protein at a concentration of 1 nM (0.12 μg/ml) to coat the ELISA plate wells. Since this is lower than the concentrations generally used, coating concentration of 0.5 μg/ml and 1.0 μg/ml were also tested. Binding of the mouse antibody (designated MoC601 MoG1K) was detected with an HRP-conjugated goat anti-mouse IgG (Fc-specific) reagent in an ELISA assay. […] This is likely to make the assay unsuitable for differentiating between the binding of different humanized variants to C6. In contrast, C6 coating concentrations of 0.5 μg/ml and 1.0 μg/ml yield results which show a clear dose-response to MoC601 MoG1K antibody, with sigmoidal-shaped curves and a consistent EC₅₀ value (0.12 nM). […] Due to lower signal variation, 1.0 μg/ml was used as the C6 coating concentration in subsequent experiments.

For experiment [4] the target is unchanged. Briefly: BLI (Octet RED384), antibody on anti-mouse Fc (AMC) biosensors, C6 0.27-5 nM, 1:1 fit, experiment 2. On the procedure: (§1) The binding of the purified chimeric molecules, MoC601 HuG4K and MoC601 HuG1KFab, was also confirmed by ELISA, where the anti-human IgG (Fab-specific) secondary reagent was used. The control mouse antibody bound as previously (EC₅₀ 0.11 nM). The EC₅₀ for purified MoC601 HuG4K (0.27 nM) was similar to that obtained for the MoC601 HuG4K supernatant sample above. […] The EC₅₀ value for the Fab molecule (0.48 nM) was higher than for the antibody, which would be expected since the Fab is unable to bind bivalently to the antigen on the well. A C6-binding assay was also set up on the Octet RED384 instrument. […] However, MoC601 MoG1K could be stably loaded onto anti-mouse Fc (AMC) biosensors. Concentrations of the mouse and chimeric antibodies were adjusted to give similar levels of loading on to the AMC and
Protein G biosensors respectively in subsequent experiments. There was no non-specific binding of C6 protein to unloaded sensors or sensors loaded with an isotype control antibody. […] The mouse and chimeric datasets were processed by subtracting the no antigen controls and the data were fitted to a 1:1 binding model. Binding curves giving Req/Rₘₐₓ ratios>90% or showing poor fitting were excluded from analysis. A second full kinetic experiment was performed with an adjusted concentration range (six points, 0.27-5 nM) and an extended dissociation step of 20 minutes.
(Biolayer interferometry detects binding as a change in optical thickness at a sensor tip.)

The target is the same in experiment [5]. Kind of experiment: BLI (Octet RED384), antibody on anti-mouse Fc (AMC) biosensors, C6 0.16-10 nM, 1:1 fit, experiment 1. The method, then: as §1
(§2) Protein G biosensors respectively in subsequent experiments. There was no non-specific binding of C6 protein to unloaded sensors or sensors loaded with an isotype control antibody. A full kinetic experiment was run for purified MoC601 MoG1K and MoC601 HuG4K antibodies using seven concentrations of C6 (0.16-10 nM) and association and dissociation steps of 20 and 15 minutes respectively. The mouse and chimeric datasets were processed by subtracting the no antigen controls and the data were fitted to a 1:1 binding model. […]

For experiment [6] the target is unchanged. Kind of experiment: BLI (Octet RED384), antibody on anti-mouse Fc (AMC) biosensors, C6 0.16-10 nM, 1:1 fit, experiment 1; experiment 1. On the procedure: as §1, §2

T1 sequence (P13671 22-934 limits assumed): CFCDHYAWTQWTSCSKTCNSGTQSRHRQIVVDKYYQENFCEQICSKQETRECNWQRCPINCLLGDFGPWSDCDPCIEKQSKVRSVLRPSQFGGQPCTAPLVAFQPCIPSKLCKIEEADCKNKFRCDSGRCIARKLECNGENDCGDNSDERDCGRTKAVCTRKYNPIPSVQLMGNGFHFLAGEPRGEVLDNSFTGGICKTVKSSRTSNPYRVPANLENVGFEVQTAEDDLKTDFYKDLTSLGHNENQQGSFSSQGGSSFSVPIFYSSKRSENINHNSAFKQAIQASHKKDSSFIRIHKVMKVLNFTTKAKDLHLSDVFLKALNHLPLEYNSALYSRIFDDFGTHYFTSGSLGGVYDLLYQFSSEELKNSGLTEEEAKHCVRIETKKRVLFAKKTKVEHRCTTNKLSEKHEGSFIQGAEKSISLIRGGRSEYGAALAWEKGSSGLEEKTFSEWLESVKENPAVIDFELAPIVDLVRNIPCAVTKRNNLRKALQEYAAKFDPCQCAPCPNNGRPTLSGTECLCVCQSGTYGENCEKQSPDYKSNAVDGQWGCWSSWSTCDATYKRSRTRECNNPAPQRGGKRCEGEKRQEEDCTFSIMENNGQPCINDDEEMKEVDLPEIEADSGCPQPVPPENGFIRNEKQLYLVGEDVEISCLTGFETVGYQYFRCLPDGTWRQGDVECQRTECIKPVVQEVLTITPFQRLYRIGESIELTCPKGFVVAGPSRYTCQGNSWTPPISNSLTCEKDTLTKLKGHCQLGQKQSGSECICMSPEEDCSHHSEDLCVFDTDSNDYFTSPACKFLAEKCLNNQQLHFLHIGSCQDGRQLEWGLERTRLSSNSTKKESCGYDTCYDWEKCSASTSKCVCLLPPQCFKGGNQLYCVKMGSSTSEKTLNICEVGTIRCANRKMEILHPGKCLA

B1: MoC601 MoG1K (mouse anti-C6 monoclonal antibody 1C9) (antibody, V domains shown)
VH: QVQLQQSGAELVKPGASVKISCKASGYAFSDYWMNWVKQRPGKGLEWIGQIYPGDDDTNYNGKFKGKATLTADKSSSTAYMQLSSLTSEDSAVYFCAREGYYGYTYVEYFDVWGTGTTVTVSS
VL: QIVLTQSPAIMSVSPGEKVTLTCSASSSVSYMHWYQQKSGTSPKRWIYDTSKLASGVPARFSGSGSGTSYSLTISSMEAEDAATYYCQQWTSNPLTFGAGTKLELR
notes: also called mAb 1C9; mouse antibody
Take B1: the EC50 (usually the concentration needed to bring the measured effect to its halfway point) amounted to 0.11 nM in experiment [1], 0.07 nM in experiment [2] and 0.12 nM in experiment [3]. Moreover, the Kd – broadly, a measure of binding affinity in units of concentration – worked out at 0.29 nM in experiment [4] and 0.42 nM in experiment [5]. Further, the kon (usually the rate constant with which the complex forms) is 690000 M⁻¹ s⁻¹ in experiment [4] and 730000 M⁻¹ s⁻¹ in experiment [5]. Moreover, in experiment [6], the dissociation rate constant (koff) (usually the first-order rate constant of dissociation) was 0.00031 s⁻¹.
